Experiments:
[1] = biological target: 全長ヒトインテグリンアルファ4ベータ7 (expressed in 293 cells, purified by Fib504 affinity chromatography) (human) (UniProt P13612); experiment: Biacore SPR, Fab immobilised on CM5, alpha4beta7 injected (summary of Table 3)
[2] = biological target: T1, 全長ヒトインテグリンアルファ4ベータ7 (expressed in 293 cells, purified by Fib504 affinity chromatography) (human, UniProt P13612 34-1032; P26010 20-798); experiment: phage-displayed Fab on immobilised human alpha4beta7
T1 construct: mature; also called 固定化アルファ4ベータ7; α4β7

B1: hu504.32 (Fab) (Fab, V domains shown)
VH: EVQLVESGGGLVQPGGSLRLSCAASGFFITNNYWGWVRQAPGKGLEWVGYISYSGSTSYNPSLKSRFTISRDTSKNTFYLQMNSLRAEDTAVYYCAMTGSSGYFDFWGQGTLVTVSS
VL: DIQMTQSPSSLSASVGDRVTITCRASESVDDLLHWYQQKPGKAPKLLIKYASQSISGVPSRFSGSGSGTDFTLTISSLQPEDFATYYCQQGNSLPNTFGQGTKVEIKR
fold tighter binding relative to the starting rat antibody [1]: 3 fold

B2: Fib504Kグラフト (HVR graft with light chain Y49K, Fab displayed on phage) (Fab, V domains shown)
VH: EVQLVESGGGLVQPGGSLRLSCAASGFFITNNYWGWVRQAPGKGLEWVGYISYSGSTSYNPSLKSRFTISADTSKNTAYLQMNSLRAEDTAVYYCAMTGSSGYFDFWGQGTLVTVSS
VL: DIQMTQSPSSLSASVGDRVTITCRASESVDTYLHWYQQKPGKAPKLLIKYASQSISGVPSRFSGSGSGTDFTLTISSLQPEDFATYYCQQGNSLPNTFGQGTKVEIKR
notes: also called hu504Kグラフト; ヒト化504Kグラフト
binding result [2]: no binding

B3: Fib504グラフト (direct HVR graft, Fab displayed on phage) (Fab, V domains shown)
VH: EVQLVESGGGLVQPGGSLRLSCAASGFFITNNYWGWVRQAPGKGLEWVGYISYSGSTSYNPSLKSRFTISADTSKNTAYLQMNSLRAEDTAVYYCAMTGSSGYFDFWGQGTLVTVSS
VL: DIQMTQSPSSLSASVGDRVTITCRASESVDTYLHWYQQKPGKAPKLLIYYASQSISGVPSRFSGSGSGTDFTLTISSLQPEDFATYYCQQGNSLPNTFGQGTKVEIKR
notes: Tested as monovalent Fab-g3 on phage (VH-CH1 fused to truncated P3); also called hu504グラフト; ヒト化抗体504グラフト
binding result [2]: no binding
